Values quoted from earlier work, collected in paper PMC5382571.
Where two headings read alike, the source gives them in different places.

Columns and labels:
PCNA (Homo sapiens) [1] = molecular target: PCNA (Homo sapiens) (UniProt P12004)
PCNA (Homo sapiens) [2] = molecular target: PCNA (Homo sapiens) (UniProt P12004); remark: listed apart in the source

Sequence of UniProt P12004 (P12004 whole entry): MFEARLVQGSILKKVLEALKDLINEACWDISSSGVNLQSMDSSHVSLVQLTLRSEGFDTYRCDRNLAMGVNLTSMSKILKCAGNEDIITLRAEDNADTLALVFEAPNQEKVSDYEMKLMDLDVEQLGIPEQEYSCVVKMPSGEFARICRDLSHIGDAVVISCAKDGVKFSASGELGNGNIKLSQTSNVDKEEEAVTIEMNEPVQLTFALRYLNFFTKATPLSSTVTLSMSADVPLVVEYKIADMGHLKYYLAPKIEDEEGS

In the case of “DNA polymerase delta (from UniProt P28340)”, the Kd (PCNA (Homo sapiens) [1]) is given as < 10 nM.
In the case of RFC (from UniProt P35251), the Kd (PCNA (Homo sapiens) [2]) is given as 0.2 nM.
